According to patent publication US20220289861A1:

How the values were obtained:
[1] = biological target: truncated human CD163 ECD SRCR domain 1-5 fragment with C-terminus histidine tag (human) (UniProt Q86VB7); assay: ratio of EC50 on huCD163 SRCR 1-5 to EC50 on huCD163 ECD
[2] = biological target: recombinant murine CD163 (R&D Systems, No. 7435-CD-050) (murine) (UniProt Q2VLH6); assay: ELISA on plate-coated recombinant murine CD163 (5 ug/mL)
recombinant murine CD163 (R&D Systems, No. 7435-CD-050) (murine), sequence (Q2VLH6 39-1045 limits assumed): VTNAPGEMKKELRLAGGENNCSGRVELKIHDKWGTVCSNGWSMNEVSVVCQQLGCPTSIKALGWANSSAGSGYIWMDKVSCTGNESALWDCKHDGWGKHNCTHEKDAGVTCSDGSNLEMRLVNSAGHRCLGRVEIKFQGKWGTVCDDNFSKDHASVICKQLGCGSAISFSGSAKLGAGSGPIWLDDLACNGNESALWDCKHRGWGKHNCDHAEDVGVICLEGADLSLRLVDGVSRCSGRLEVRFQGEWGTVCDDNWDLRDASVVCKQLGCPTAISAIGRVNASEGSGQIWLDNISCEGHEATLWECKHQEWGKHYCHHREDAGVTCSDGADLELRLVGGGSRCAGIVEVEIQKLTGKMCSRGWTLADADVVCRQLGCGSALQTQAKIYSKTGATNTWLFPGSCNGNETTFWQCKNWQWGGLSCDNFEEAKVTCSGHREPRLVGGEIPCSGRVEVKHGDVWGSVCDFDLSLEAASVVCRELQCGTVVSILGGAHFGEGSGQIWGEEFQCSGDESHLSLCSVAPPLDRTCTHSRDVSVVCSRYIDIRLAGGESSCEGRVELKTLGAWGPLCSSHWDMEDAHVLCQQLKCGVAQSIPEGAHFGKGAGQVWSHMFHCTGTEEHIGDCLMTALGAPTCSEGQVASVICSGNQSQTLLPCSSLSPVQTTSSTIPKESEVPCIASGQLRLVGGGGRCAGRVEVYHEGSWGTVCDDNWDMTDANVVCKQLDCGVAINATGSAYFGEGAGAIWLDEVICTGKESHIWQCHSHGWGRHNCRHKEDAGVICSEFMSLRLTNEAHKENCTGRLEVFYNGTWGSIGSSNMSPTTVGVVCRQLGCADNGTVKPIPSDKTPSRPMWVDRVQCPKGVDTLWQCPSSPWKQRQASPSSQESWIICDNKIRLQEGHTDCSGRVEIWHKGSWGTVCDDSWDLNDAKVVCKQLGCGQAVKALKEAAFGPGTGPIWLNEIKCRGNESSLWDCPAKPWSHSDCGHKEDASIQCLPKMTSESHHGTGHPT

truncated human CD163 ECD SRCR domain 1-5 fragment with C-terminus histidine tag (human), sequence (Q86VB7 42-578 limits assumed): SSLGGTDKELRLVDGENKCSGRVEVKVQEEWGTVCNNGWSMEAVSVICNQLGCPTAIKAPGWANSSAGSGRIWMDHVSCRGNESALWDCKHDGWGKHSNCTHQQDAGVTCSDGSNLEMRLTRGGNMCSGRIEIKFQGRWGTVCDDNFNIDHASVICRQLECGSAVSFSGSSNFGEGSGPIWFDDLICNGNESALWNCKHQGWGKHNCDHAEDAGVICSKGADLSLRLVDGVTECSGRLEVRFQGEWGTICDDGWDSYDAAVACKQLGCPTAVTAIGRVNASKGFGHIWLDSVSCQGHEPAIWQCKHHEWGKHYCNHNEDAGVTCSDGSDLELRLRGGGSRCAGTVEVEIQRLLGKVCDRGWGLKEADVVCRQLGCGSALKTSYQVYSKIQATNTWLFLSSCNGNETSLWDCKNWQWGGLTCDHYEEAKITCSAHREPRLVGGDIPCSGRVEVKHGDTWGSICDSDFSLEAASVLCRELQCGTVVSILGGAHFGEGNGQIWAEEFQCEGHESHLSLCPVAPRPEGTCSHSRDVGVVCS

Row | Ratio SRCR 1-5/ECD [1] | EC50 (read off the curve) [2] [nM] | Substance
1 | 1.17 | – | 215927 (antibody)
2 | 0.96 | – | EDHu-1 (antibody)
3 | – | 0.03 | commercially available rat anti-muCD163 antibody (Thermo Fisher Scientific #14-1631-82)
